Reference: US20190135888A1 (Harvard, published 2019)
One block for each binder: values may come before it.

B1: human aP2 (fatty acid-binding protein, adipocyte, FABP4/aP2, Homo sapiens) (other)
chain: CDAFVGTWKLVSSENFDDYMKEVGVGFATRKVAGMAKPNMIISVNGDVITIKSESTFKNTEISFILGQEFDEVTADDRKVKSTITLDGGVLVHVQKWDGKSTTIKRKREDDKLVVECVMKGVTSTRVYERA
notes: Biotinylated with Sulfo-NHS-LC-Biotin for the Octet cross-reactivity assay; also called haP2; hFABP4
B2: GCGR extracellular domain (GCGR-ecd) (receptor, UniProt P47871 26-136, looked up)
chain: AQVMDFLFEKWKLYGDQCHHNLSLLPPPTELVCNRTFDKYSCWPDTPANTTANISCPWYLPWHHKVQHRFVFKRCGPDGQWVRGPRGQPWRDASQCQMDGEEIEVQKEVAK
notes: extracellular domain; also called glucagon receptor extracellular domain; not shown: Hexahistidine and WELQ protease site added during cloning; MST was run with tag and with

Key:
glucagon [1] = target: T1, glucagon; assay: binding curve, Response (ΔFnorm [‰]) against Ligand Concentration [nM]; the table under the plot has no unit, nM is that of the axis; paragraph 390 names an Octet system; which partner is titrated is not given
T1 construct: This id is also used for the endogenous glucagon of mouse serum; also called biotin-glucagon; biotinylated glucagon

glucagon [2] = target: T1, glucagon; assay: binding curve, Response (ΔFnorm [‰]) against Ligand Concentration [nM]; table under the plot
[3] = target: glucagon/aP2 complex (glucagon plus aP2, Example 1) (Mus musculus (Mouse), UniProt P04117 1-132, limits assumed); assay: BLI (BLItz): GCGR-ecd on biotin-glucagon immobilized on streptavidin sensors, in the presence of aP2
[4] = target: B1; assay: Biacore T200, anti-aP2 IgG captured on anti-mouse IgG Fc, aP2 titrated over it; steady-state fit for CA33
[5] = target: T2, hFABP5/hMal1 (recombinant human FABP5, Sino Biological Inc.) (human, UniProt Q01469 1-135, limits assumed); assay: Octet RED384, biotinylated human FABP on streptavidin biosensors, antibody at 800 nM
T2 construct: Biotinylated with Sulfo-NHS-LC-Biotin and loaded on streptavidin biosensors; also called FABP5/Mal1; Mal1/FABP5
Experimental: The recombinant human proteins aP2 (generated at UCB in E. coli (see method below)), hFABP3 (Sino Biological Inc.) and hFABP5/hMall (Sino Biological Inc.) were biotinylated in a 5-fold molar excess of EZ-Link® Sulfo-NHS-LC-Biotin (Thermo Fisher Scientific) and purified from unbound biotin using a Zeba desalting column (Thermo Fisher Scientific). All binding studies were performed at 25° C. using a ForteBio Octet RED384 system (Pall ForteBio Corp.). […] Biosensors were then transferred back to PBS-T for 5 min. to measure dissociation. Non-specific binding of antibodies was monitored using unloaded biosensor tips.

[6] = target: B2; assay: binding curve, Response (ΔFnorm [‰]) against Ligand Concentration [nM]; the table under the plot has no unit, nM is that of the axis; paragraph 390 names an Octet system; which partner is titrated is not given
[7] = target: B2; assay: binding curve, Response (ΔFnorm [‰]) against Ligand Concentration [nM]; table under the plot

T1 sequence (peptide, as listed by the source): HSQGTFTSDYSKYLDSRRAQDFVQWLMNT
T2 sequence (Q01469 whole entry): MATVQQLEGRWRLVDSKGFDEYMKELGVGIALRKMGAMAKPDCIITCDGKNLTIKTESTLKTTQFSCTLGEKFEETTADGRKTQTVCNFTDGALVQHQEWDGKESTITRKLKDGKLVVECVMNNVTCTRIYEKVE

Binder: B1
EC50 (glucagon [1]): 20.3 nM
logEC50 (glucagon [2]): 1.31

Binder: B2
Kd [3]: 54.1 nM

Kd [4]: 2830 nM
binding result [5]: no binding (tested: 800 nM)
B3: CA33 (Rabbit Ab 909) (antibody, V domains shown)
VH: QSVEESGGRLVTPGTPLTLTCTVSGFSLSTYYMSWVRQAPGKGLEWIGIIYPSGSTYCASWAKGRFTISKASTTVDLKITSPTTEDTATYFCARPDNDGTSGYLSGFGLWGQGTLVTVSS
VL: DVVMTQTPASVSEPVGGTVTIKCQASEDISRYLVWYQQKPGQPPKRLIYKASTLASGVPSRFKGSGSGTDFTLTISDLECDDAATYYCQCTYGTYAGSFFYSFGGGTEVVVE
notes: Rabbit variable regions; also called Rabbit Antibody 909; antibody 909

EC50 [6]: 327 nM
logEC50 [7]: 2.51
B4: aP2 (recombinant aP2 of Example 1) (other)
chain: MCDAFVGTWKLVSSENFDDYMKEVGVGFATRKVAGMAKPNMIISVNGDLVTIRSESTFKNTEISFKLGVEFDEITADDRKVKSIITLDGGALVQVQKWDGKSTTIKRKRDGDKLVVECVMKGVTSTRVYERA
notes: Used unlabelled, and amine-biotinylated in the scintillation proximity assay; also called FABP4
